To fix the notation:
T1: NiVM G head domain protein (residues 176-602) (Nipah virus, Malaysia strain (NiVM), UniProt Q9IH62 176-602)
T1 sequence: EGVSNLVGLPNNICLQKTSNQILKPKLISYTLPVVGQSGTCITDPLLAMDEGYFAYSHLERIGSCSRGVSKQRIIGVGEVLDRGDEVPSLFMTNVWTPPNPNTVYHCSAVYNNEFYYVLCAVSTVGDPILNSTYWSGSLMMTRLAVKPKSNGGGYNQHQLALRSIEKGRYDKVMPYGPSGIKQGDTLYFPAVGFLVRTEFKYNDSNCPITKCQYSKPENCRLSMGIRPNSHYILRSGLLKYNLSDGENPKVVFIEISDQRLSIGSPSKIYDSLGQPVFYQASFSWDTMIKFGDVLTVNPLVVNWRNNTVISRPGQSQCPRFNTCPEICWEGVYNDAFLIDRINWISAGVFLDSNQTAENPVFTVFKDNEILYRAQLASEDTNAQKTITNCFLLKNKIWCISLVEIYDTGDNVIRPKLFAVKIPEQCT

B1: S2B10 Fab (Fab, V domains shown)
VH: QMQLQESGPGLVKPSQSLSLTCTVTGYSITSDYAWNWIRQFPRNKLEWMGFITYSGSTSYNPSLKSRISLTRDTSKNQFFLQLSSVTTEDTATYYCARSGANWDWFAYWGQGTLVTVSA
VL: DIQMTQSPASLAVSLGQRATISCRASESVDNYGNSFMHWYQQKPGQPPKLLIYRASKLESGIPARFSGSGSRTDFTLTINPVEADDVATYHCQQSNEDPWTFGGGTKLEIK
B2: S1E2 Fab (Fab, V domains shown)
VH: QMQLQESGPGLVKPSQSLSLTCSVTGYSITSGYYWNWIRQFSGNKLEWMGYINHDGSKNYNPSLKNRISITRDTSKNQFFLKLNSVTTEDTATYYCARDYGSYYYPMDYWGQGTSVTVSS
VL: EIVLTQSPPIMSASPGEKVTITCSASSSVTFMHWFQQKPGTSPKLWIFSTSNLASGVPARFSGSGSGTSYSLTISRMEAEDAATYYCQQRSSYPFTFGSGTKLEIK
B3: LN3D3 Fab (Fab, V domains shown)
VH: EVKLEESGPELVKPGASVKMSCKASGYTFTNYVMHWVKQKPGQGLEWIGYVNPYNDGTQYNEKFRDKATLTSDKSSSTVYMELNSLTSEDSAVYYCTRGDYPYWVFEVWGAGTTVTVSS
VL: EIQMTQSPATLSVTPGDSVSLSCRASQSISNNLHWYQQKSHESPRLLIKYASQSISGIPSRFSGSGSGTDFTLSINNLETEDFGMYFCQHSDSWPFTFGSGTKLEIK
B4: LN1F9 Fab (Fab, V domains shown)
VH: EVKLVESGGGLVKPGGSLKLSCAASGFSFRNYAMSWVRQSPEKRLEWVAEVSSGGGYTYYPDTVTGRFTISRDNAKNILYLEMSSLRSEDTAMYYCTRDPDSSGYLAWFAYWGQGTLVTVSA
VL: DILLTQSPASLSASVGETVTITCRASENINSYLAWYQQKQGKSPQLLVYNAKTLAEGVPSRFSGSGSDTQFSLKINTLQPEDFGTYYCQHHSGTPYTFGGGTKLEIK
B5: mAb S2B10 (antibody, V domains shown)
VH: B1 VH
VL: B1 VL
B6: mAb S1E2 (antibody, V domains shown)
VH: B2 VH
VL: B2 VL
B7: mAb LN1F9 (antibody, V domains shown)
VH: B4 VH
VL: B4 VL
B8: mAb LN3D3 (antibody, V domains shown)
VH: B3 VH
VL: B3 VL
B9: human ephrin-B2 (residues 27-167) (receptor)
chain: SIVLEPIYWNSSNSKFLPGQGLVLYPQIGDKLDIICPKVDSKTVGQYEYYKVYMVDKDQADRCTIKKENTPLLNCAKPDQDIKFTIKFQEFSPNLWGLEFQKNKDYYIISTSNGSLEGLDNQEGGVCQTRAMKILMKVGQD

The target in one test is T2, NiVM G head domain protein (residues 176-602) (Nipah virus, Malaysia strain (NiVM), UniProt Q9IH62). As to the kind of experiment: cryo-EM structure.
With B1, the binding result is reported as “binds”.

With B2, the binding result is “binds”.

Regarding B3, the binding result was “binds”.

A further test concerns the target deglycosylated NiVM G head domain without the His-tag (residues 176-602) (Nipah virus, Malaysia strain, …, UniProt Q9IH62). The test can be described thus: crystal structure.
As for B4, the binding result is listed as “binds”.

For another test, the target named is MojV G head domain (residues 176-625) (Mojiang virus, GenBank YP_009094095.1, UniProt W8TIR7). As to the kind of experiment: ELISA.
On to B5, for which the binding result was “no binding (tested: 1 μg/mL)”.

In the case of B6, the binding result was “no binding (tested: 1 μg/mL)”.

In the case of B7, the binding result is recorded as “no binding (tested: 1 μg/mL)”.

On to B8, for which the binding result is on record as “no binding (tested: 1 μg/mL)”.

For the next test, the target named is LayV G head domain (residues 176-625) (Langya virus, GenBank UUV47206.1, UniProt A0AAX3C924). As to the kind of experiment: ELISA. For orientation: An ELISA detects its analyte on a solid surface through an enzyme-linked reagent.
For the molecule B5, the binding result is given as “no binding (tested: 1 μg/mL)”.

For B6, the binding result was “no binding (tested: 1 μg/mL)”.

Regarding B7, the binding result is “no binding (tested: 1 μg/mL)”.

Consider B8, for which the binding result is given as “no binding (tested: 1 μg/mL)”.

The next test deals with NiVM G ectodomain (residues 96-602) (Nipah virus, Malaysia strain, …, UniProt Q9IH62). The test can be described thus: ELISA.
In the case of B5, the binding result is recorded as “binds”.

Consider B6, for which the binding result is “binds”.

For B7, the binding result is reported as “binds”.

On to B8, for which the binding result is recorded as “binds”.

The next test deals with T2, NiVM G head domain protein (residues …). As to the kind of experiment: BLI. In general terms: In BLI a coated tip is dipped into the sample, and binding shifts an interference pattern.
Turning to B5, the binding result is given as “binds”.

For the molecule B6, the binding result is “binds”.

B7: the binding result was “binds”.

As to B8, the binding result is “binds”.

The target in a further test is T1, NiVM G head domain protein (residues …). As to the kind of experiment: BLI.
As to B9, the binding result was “binds”.

These data come from publication doi:10.1101/2025.02.16.638571 (bioRxiv, 2025).
